Here are results for four molecules from US12679878B2, “CRF2 receptor agonists and their use in therapy” (SANOFI, priority 2020, dated 2026).

In the test the target is human corticotropin-releasing factor 2α (CRF2 α receptor) (human), Q13324. Description: cell-based or functional assay.

Starred links: 1 amine or outer side, 2 acyl side, 3 side chain; linkers in the order of their positions; H or OH if unused. Groups on a side chain read outwards from the residue. No end group written: not given here. *: point of attachment. C18 diacid = O=C(O)CCCCCCCCCCCCCCCCC(=O)*; γGlu = O=C(O)[C@H](CCC(=O)[*:2])N[*:1]; AEEA = NCCOCCOCC(=O)O

Chain of human corticotropin-releasing factor 2α (CRF2 α receptor) (human), Q13324 (Q13324 20-411): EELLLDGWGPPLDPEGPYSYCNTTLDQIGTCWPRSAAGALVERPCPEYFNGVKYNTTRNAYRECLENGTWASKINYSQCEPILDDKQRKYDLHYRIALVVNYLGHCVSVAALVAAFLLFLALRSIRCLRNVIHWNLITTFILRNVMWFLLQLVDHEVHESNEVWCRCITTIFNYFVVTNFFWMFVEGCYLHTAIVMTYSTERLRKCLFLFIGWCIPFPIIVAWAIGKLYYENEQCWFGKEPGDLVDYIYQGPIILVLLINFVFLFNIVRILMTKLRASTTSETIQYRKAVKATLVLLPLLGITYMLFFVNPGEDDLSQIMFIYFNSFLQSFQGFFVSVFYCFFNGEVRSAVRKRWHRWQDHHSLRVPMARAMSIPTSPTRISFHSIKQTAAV

B1: SEQ ID NO: 54 (peptide)
peptide: FTLSLDVPIKLK([AEEA-AEEA-γGlu-C18 diacid])QILLKQQKQKKERQQAETNVQLLERV-NH2
modifications: N-terminus assumed
SMILES: CC[C@H](C)[C@H](NC(=O)[C@H](CCC(N)=O)NC(=O)[C@H](CCCCNC(=O)COCCOCCNC(=O)COCCOCCNC(=O)CC[C@H](NC(=O)CCCCCCCCCCCCCCCCC(=O)O)C(=O)O)NC(=O)[C@H](CC(C)C)NC(=O)[C@H](CCCCN)NC(=O)[C@@H](NC(=O)[C@@H]1CCCN1C(=O)[C@@H](NC(=O)[C@H](CC(=O)O)NC(=O)[C@H](CC(C)C)NC(=O)[C@H](CO)NC(=O)[C@H](CC(C)C)NC(=O)[C@@H](NC(=O)[C@@H](N)Cc1ccccc1)[C@@H](C)O)C(C)C)[C@@H](C)CC)C(=O)N[C@@H](CC(C)C)C(=O)N[C@@H](CC(C)C)C(=O)N[C@@H](CCCCN)C(=O)N[C@@H](CCC(N)=O)C(=O)N[C@@H](CCC(N)=O)C(=O)N[C@@H](CCCCN)C(=O)N[C@@H](CCC(N)=O)C(=O)N[C@@H](CCCCN)C(=O)N[C@@H](CCCCN)C(=O)N[C@@H](CCC(=O)O)C(=O)N[C@@H](CCCNC(=N)N)C(=O)N[C@@H](CCC(N)=O)C(=O)N[C@@H](CCC(N)=O)C(=O)N[C@@H](C)C(=O)N[C@@H](CCC(=O)O)C(=O)N[C@H](C(=O)N[C@@H](CC(N)=O)C(=O)N[C@H](C(=O)N[C@@H](CCC(N)=O)C(=O)N[C@@H](CC(C)C)C(=O)N[C@@H](CC(C)C)C(=O)N[C@@H](CCC(=O)O)C(=O)N[C@@H](CCCNC(=N)N)C(=O)N[C@H](C(N)=O)C(C)C)C(C)C)[C@@H](C)O
B1: the EC50 [nM], 0% HSA was determined as 0.57 nM and the EC50 [nM], 0.1% HSA stood at 24.5 nM.

B2: SEQ ID NO: 55 (peptide)
peptide: FTLSLDVPTKIK([AEEA-AEEA-γGlu-C18 diacid])QILLKQQKQKKERQKAETNVQLLERV-NH2
modifications: N-terminus assumed
SMILES: CC[C@H](C)[C@H](NC(=O)[C@H](CCC(N)=O)NC(=O)[C@H](CCCCNC(=O)COCCOCCNC(=O)COCCOCCNC(=O)CC[C@H](NC(=O)CCCCCCCCCCCCCCCCC(=O)O)C(=O)O)NC(=O)[C@@H](NC(=O)[C@H](CCCCN)NC(=O)[C@@H](NC(=O)[C@@H]1CCCN1C(=O)[C@@H](NC(=O)[C@H](CC(=O)O)NC(=O)[C@H](CC(C)C)NC(=O)[C@H](CO)NC(=O)[C@H](CC(C)C)NC(=O)[C@@H](NC(=O)[C@@H](N)Cc1ccccc1)[C@@H](C)O)C(C)C)[C@@H](C)O)[C@@H](C)CC)C(=O)N[C@@H](CC(C)C)C(=O)N[C@@H](CC(C)C)C(=O)N[C@@H](CCCCN)C(=O)N[C@@H](CCC(N)=O)C(=O)N[C@@H](CCC(N)=O)C(=O)N[C@@H](CCCCN)C(=O)N[C@@H](CCC(N)=O)C(=O)N[C@@H](CCCCN)C(=O)N[C@@H](CCCCN)C(=O)N[C@@H](CCC(=O)O)C(=O)N[C@@H](CCCNC(=N)N)C(=O)N[C@@H](CCC(N)=O)C(=O)N[C@@H](CCCCN)C(=O)N[C@@H](C)C(=O)N[C@@H](CCC(=O)O)C(=O)N[C@H](C(=O)N[C@@H](CC(N)=O)C(=O)N[C@H](C(=O)N[C@@H](CCC(N)=O)C(=O)N[C@@H](CC(C)C)C(=O)N[C@@H](CC(C)C)C(=O)N[C@@H](CCC(=O)O)C(=O)N[C@@H](CCCNC(=N)N)C(=O)N[C@H](C(N)=O)C(C)C)C(C)C)[C@@H](C)O
Molecule B2 came in with an EC50 [nM], 0% HSA of 48.5 nM.

B3: SEQ ID NO: 52 (peptide)
peptide: FTLSLDVPTKIK([AEEA-AEEA-γGlu-C18 diacid])QILLKQQKQKKERQQAEKNKQLLERV-NH2
modifications: N-terminus assumed
SMILES: CC[C@H](C)[C@H](NC(=O)[C@H](CCC(N)=O)NC(=O)[C@H](CCCCNC(=O)COCCOCCNC(=O)COCCOCCNC(=O)CC[C@H](NC(=O)CCCCCCCCCCCCCCCCC(=O)O)C(=O)O)NC(=O)[C@@H](NC(=O)[C@H](CCCCN)NC(=O)[C@@H](NC(=O)[C@@H]1CCCN1C(=O)[C@@H](NC(=O)[C@H](CC(=O)O)NC(=O)[C@H](CC(C)C)NC(=O)[C@H](CO)NC(=O)[C@H](CC(C)C)NC(=O)[C@@H](NC(=O)[C@@H](N)Cc1ccccc1)[C@@H](C)O)C(C)C)[C@@H](C)O)[C@@H](C)CC)C(=O)N[C@@H](CC(C)C)C(=O)N[C@@H](CC(C)C)C(=O)N[C@@H](CCCCN)C(=O)N[C@@H](CCC(N)=O)C(=O)N[C@@H](CCC(N)=O)C(=O)N[C@@H](CCCCN)C(=O)N[C@@H](CCC(N)=O)C(=O)N[C@@H](CCCCN)C(=O)N[C@@H](CCCCN)C(=O)N[C@@H](CCC(=O)O)C(=O)N[C@@H](CCCNC(=N)N)C(=O)N[C@@H](CCC(N)=O)C(=O)N[C@@H](CCC(N)=O)C(=O)N[C@@H](C)C(=O)N[C@@H](CCC(=O)O)C(=O)N[C@@H](CCCCN)C(=O)N[C@@H](CC(N)=O)C(=O)N[C@@H](CCCCN)C(=O)N[C@@H](CCC(N)=O)C(=O)N[C@@H](CC(C)C)C(=O)N[C@@H](CC(C)C)C(=O)N[C@@H](CCC(=O)O)C(=O)N[C@@H](CCCNC(=N)N)C(=O)N[C@H](C(N)=O)C(C)C
Molecule B3 came in with an EC50 [nM], 0% HSA of 0.7 nM and an EC50 [nM], 0.1% HSA of 45.8 nM.

B4: SEQ ID NO: 53 (peptide)
peptide: FTLSLDVPTKIK([AEEA-AEEA-γGlu-C18 diacid])QILLKQQKQKKERQQAETNKQLLERV-NH2
modifications: N-terminus assumed
SMILES: CC[C@H](C)[C@H](NC(=O)[C@H](CCC(N)=O)NC(=O)[C@H](CCCCNC(=O)COCCOCCNC(=O)COCCOCCNC(=O)CC[C@H](NC(=O)CCCCCCCCCCCCCCCCC(=O)O)C(=O)O)NC(=O)[C@@H](NC(=O)[C@H](CCCCN)NC(=O)[C@@H](NC(=O)[C@@H]1CCCN1C(=O)[C@@H](NC(=O)[C@H](CC(=O)O)NC(=O)[C@H](CC(C)C)NC(=O)[C@H](CO)NC(=O)[C@H](CC(C)C)NC(=O)[C@@H](NC(=O)[C@@H](N)Cc1ccccc1)[C@@H](C)O)C(C)C)[C@@H](C)O)[C@@H](C)CC)C(=O)N[C@@H](CC(C)C)C(=O)N[C@@H](CC(C)C)C(=O)N[C@@H](CCCCN)C(=O)N[C@@H](CCC(N)=O)C(=O)N[C@@H](CCC(N)=O)C(=O)N[C@@H](CCCCN)C(=O)N[C@@H](CCC(N)=O)C(=O)N[C@@H](CCCCN)C(=O)N[C@@H](CCCCN)C(=O)N[C@@H](CCC(=O)O)C(=O)N[C@@H](CCCNC(=N)N)C(=O)N[C@@H](CCC(N)=O)C(=O)N[C@@H](CCC(N)=O)C(=O)N[C@@H](C)C(=O)N[C@@H](CCC(=O)O)C(=O)N[C@H](C(=O)N[C@@H](CC(N)=O)C(=O)N[C@@H](CCCCN)C(=O)N[C@@H](CCC(N)=O)C(=O)N[C@@H](CC(C)C)C(=O)N[C@@H](CC(C)C)C(=O)N[C@@H](CCC(=O)O)C(=O)N[C@@H](CCCNC(=N)N)C(=O)N[C@H](C(N)=O)C(C)C)[C@@H](C)O
As to B4, the EC50 [nM], 0% HSA was 1.01 nM and the EC50 [nM], 0.1% HSA was found to be 55.1 nM.
